# Molecular target: polysialate O-acetyltransferase NeuO, protein variant with four N-terminal RLKTQDS heptads (Escherichia coli K1 (prophage CUS-3))
# Assay: crystal structure; apo-enzyme, space group P2_1, three monomers in the asymmetric unit, 1.7 Å; sitting drop at 20°C, 0.1 M Tris pH 7.2, 0.45 M glycine, 0.2 M NH4NO3, 7% PEG4000
substance,measurement,value
"polysialate O-acetyltransferase NeuO, protein variant with four N-terminal RLKTQDS heptads (enzyme)",stoichiometry N,3
